A word on the Km: it is the substrate concentration at which the rate is half of its maximum.

Substrate in data set [1]: CC1(C)CNC2=NC(N)=NC(=O)C2=N1
The data set can be described thus: Quinoid dihydropterin as substrate for dihydropteridine reductase (beef liver). Format: biochemical.

Substrate in data set [2]: CC1(c2ccccc2)CNC2=NC(N)=NC(=O)C2=N1
Described as above. Format: biochemical. The conditions noted are these: other: substrate produced by Peroxidase + H2O2; pH 7.4; 27.0 °C.

Substrate in data set [3]: CC1=Nc2c(O)nc(N)nc2NC1
Described as above. In kind it is biochemical. The conditions noted are these: other: substrate produced by Peroxidase + H2O2; pH 7.4; 27.0 °C.

Substrate in data set [4]: CC1(C)CNc2nc(N)[nH]c(=O)c2N1
The data set is described as follows: Phenylalanine hydroxylase cofactor assay (cofactor consumption and tyrosine formation). In kind it is biochemical, Rat. The conditions noted are these: other: 1 mM phenylalanine, atmospheric oxygen, 0.1 M Tris·HCl, pH 7.4, 27°C. Here is the method:
(§1) The 6,6-dimethyl substituted tetrahydropterin was tested for cofactor activity in a standard phenylalanine hydroxylase assay in which both cofactor consumption and tyrosine formation were monitored. […] An apparent Michaelis constant was determined at 1 mM phenylalanine and atmospheric oxygen with concentrations of 6,6-Me₂PH₄ ranging from 0.02-0.3 mM. The effect of a second methyl at the 6-position slightly increases the affinity for phenylalanine hydroxylase, since the apparent Km was two-thirds to three-quarters that of 6-methyl and 6,7-dimethyltetrahydropterin (Table IV). […] The maximum velocity of the reaction with 6,6-Me₂PH₄ is similar to that with the 6,7-dimethyl compound and about 6 times slower than with the natural cofactor (Table IV).

Substrate in data set [5]: CC1CNc2nc(N)[nH]c(=O)c2N1
Described as above. The conditions noted are these: other: 1 mM phenylalanine, atmospheric oxygen, 0.1 M Tris·HCl, pH 7.4, 27°C. Format: biochemical, Rat. As for the experimental part: as §1

Substrate in data set [6]: CC1(C)CNC2=NC(N)=NC(=O)C2=N1
The data set can be described thus: Quinoid dihydropterin as substrate for dihydropteridine reductase (sheep liver). Format: biochemical. As for the experimental part: The quinoid was generated from 6,6-Me₂PH₄, as outlined previously. […] Peroxidase (6 units/ml final volume) was temperature equilibrated in 0.1 M Tris·HCl, pH 7.4, at 27° for 5 minutes. H₂O₂ (1.2 mM final concentration) was then added, followed by 6,6-Me₂PH₄. Conversion to q-6,6-Me₂PH₂, monitored at 340 nm, was complete within a few seconds. • (iii) Generation by phenylalanine hydroxylase: […] At 5 minutes, 6,6-Me₂PH₄ was introduced and monitored at 340 nm. Conversion of 6,6-Me₂PH₄ to quinoid dihydropterin was complete in 1-7 minutes, depending on the concentration. […] Reaction was then initiated with dihydropteridine reductase (0.01 units/ml). Rates were calculated from the enzyme dependent decrease in O.D. at 340 nm, using an extinction coefficient of 9.8 for the chemically synthesized substrate and 6.2 for the peroxidase- and phenylalanine-hydroxylase-containing reactions in which the pterin is maintained in the quinoid form. […] This Km was obtained regardless of the method of generation of the quinoid dihydropterin. The Vmax's were also the same for the dihydropteridine reductase catalyzed reduction of quinoid generated by any of the three methods (Table VI). Thus, the quinoid products of each procedure appear to behave equally.

[7] abbreviates: other: substrate produced by Bromine oxidation, 0.1 M Tris·HCl, pH 7.4, 27°C.
Setting [8] is: other: substrate produced by Phe hydroxylase + phe, pH 7.4, 27.0 °C.

B1: Beef Liver Dihydropteridine Reductase (Bos taurus) (protein)
chain: MAAAAGEARRVLVYGGRGALGSRCVQAFRARNWWVASIDVQENEEASANVVVKMTDSFTEQADQVTAEVGKLLGTEKVDAILCVAGGWAGGNAKSKSLFKNCDLMWKQSVWTSTISSHLATKHLKEGGLLTLAGARAALDGTPGMIGYGMAKAAVHQLCQSLAGKSSGLPPGAAAVALLPVTLDTPVNRKSMPEADFSSWTPLEFLVETFHDWITEKNRPSSGSLIQVVTTEGKTELTAASP
notes: from tissue; host or cells: beef liver
Regarding B1, the Km in data set [1] (setting [7]) is 400 µM; in data set [1] (other: substrate produced by Peroxidase + H2O2, pH 7.4, 27.0 °C), 400 µM; in data set [1] (setting [8]), 400 µM; in data set [2] it was 70 µM; in data set [3], 30 µM.

B2: Rat Liver Phenylalanine Hydroxylase (Rattus norvegicus) (protein)
chain: MAAVVLENGVLSRKLSDFGQETSYIEDNSNQNGAISLIFSLKEEVGALAKVLRLFEENDINLTHIESRPSRLNKDEYEFFTYLDKRTKPVLGSIIKSLRNDIGATVHELSRDKEKNTVPWFPRTIQELDRFANQILSYGAELDADHPGFKDPVYRARRKQFADIAYNYRHGQPIPRVEYTEEEKQTWGTVFRTLKALYKTHACYEHNHIFPLLEKYCGFREDNIPQLEDVSQFLQTCTGFRLRPVAGLLSSRDFLGGLAFRVFHCTQYIRHGSKPMYTPEPDICHELLGHVPLFSDRSFAQFSQEIGLASLGAPDEYIEKLATIYWFTVEFGLCKEGDSIKAYGAGLLSSFGELQYCLSDKPKLLPLELEKTACQEYSVTEFQPLYYVAESFSDAKEKVRTFAATIPRPFSVRYDPYTQRVEVLDNTQQLKILADSINSEVGILCNALQKIKS
notes: Cofactor for Rat Liver Phenylalanine Hydroxylase; from tissue; host or cells: rat liver
Take B2: the Michaelis-Menten constant (Km) in data set [4] came out at 66 ± 10 µM; in data set [5], 100 ± 20 µM.

B3: Sheep Liver Dihydropteridine Reductase (Ovis aries) (protein)
chain: WVASIDVQENEEASANVVVKMTDSFTEQADQVTAEVGELLGTEKVDAILCVAGGWAGGNAKSKSLFKNCDLMWKQSVWTSTISSHLATKHLKEGGLLTLAGARAALDGTPGMIGYGMAKAAVHQLCRSLAGKNSGLPPGAAAVALLPVTLDTPVNRKSMPEADFSSWTPLEFLVETFHDWITEKNRPSSGSLIQVVTTEGKTELTTASL
With B3, the Michaelis constant (Km) in data set [6] (setting [7]) and in data set [6] (setting [8]) was 400 µM each time.

Values taken from patent EP0138995B1, “REGULATION OF ENZYMES WHICH UTILIZE TETRAHYDROBIOPTERIN OR TETRAHYDROFOLATE COFACTORS WITH 6, 6-DISUBSTITUTED-TETRAHYDROPTERIDINES” (South Alabama Medical Science Foundation, priority 1983, dated 1984).
